In article PMC8677033:

Molecular target: HIS-RBS1_1412 WT (UniProt Q8TEQ6 1297-1412)
Assay: EMSA

Sequence of HIS-RBS1_1412 WT (Q8TEQ6 1297-1412): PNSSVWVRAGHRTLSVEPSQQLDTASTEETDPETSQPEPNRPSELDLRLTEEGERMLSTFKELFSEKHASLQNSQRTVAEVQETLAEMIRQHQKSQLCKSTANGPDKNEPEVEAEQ

Binder: UUUUU (ssRNA) [U(5)]
- binding result: no binding
